{"source": "patent US5792634", "target": "RNA polymerase II purified from rat liver (rat)"}
{"substance": "RNA polymerase transcription factor SIII (Elongin), purified from rat liver", "values": [{"measurement": "rate of RNA chain elongation, runoff transcription from the AdML promoter", "result": "> 5", "unit": "fold"}]}
